Data on 17 molecules can be found in patent publication US20250154198A1, “PEPTIDE INHIBITORS OF INTERLEUKIN-23 RECEPTOR” (Zealand Pharma A/S, priority 2021, published 2025).

*1 amine or outer side, *2 acyl side, *3 side chain or, on linkers, in order; H or OH if unused. Bridges are numbered along the chain shown (N, C = ends). [ ]: non-standard residue; d: D form. 1,3‑dibromopropan‑2‑one = linker (CAS 816-39-7) joining two Cys as 1,3-dithio-propan-2-one bridge -SCH2C(=O)CH2S-; 4‑(2-Aminoethyl)benzoyl = O=C(c1ccc(CCN[*:1])cc1)[*:2]; Bip = N[C@@H](Cc1ccc(-c2ccccc2)cc1)C(=O)O; 2Nal = N[C@@H](Cc1ccc2ccccc2c1)C(=O)O; AEF = NCCOc1ccc(C[C@H](N)C(=O)O)cc1; αMeR = C[C@](N)(CCCNC(=N)N)C(=O)O; αMeL = CC(C)C[C@](C)(N)C(=O)O; CH2COCH2 = O=C(C[*:1])C[*:2]; 3Amb = NCc1cccc(C(=O)O)c1

To fix the notation:
B1: Compound 42 (peptide)
peptide: [3Amb]SCWQC[AEF][2Nal][αMeL]E[αMeR]-NH2
modifications: lactam N-10; linker 3-6 via CH2COCH2
SMILES: CC(C)C[C@]1(C)NC(=O)[C@H](Cc2ccc3ccccc3c2)NC(=O)[C@H](Cc2ccc(OCCN)cc2)NC(=O)[C@@H]2CSCC(=O)CSC[C@H](NC(=O)[C@H](CO)NC(=O)c3cccc(c3)CNC(=O)CC[C@@H](C(=O)N[C@@](C)(CCCNC(=N)N)C(N)=O)NC1=O)C(=O)N[C@@H](Cc1c[nH]c3ccccc13)C(=O)N[C@@H](CCC(N)=O)C(=O)N2
B2: Compound 50 (peptide)
peptide: [4‑(2-Aminoethyl)benzoyl]SCWQC[AEF][2Nal][αMeL]ER-NH2
modifications: lactam N-10; linker 3-6 via CH2COCH2
SMILES: CC(C)C[C@]1(C)NC(=O)[C@H](Cc2ccc3ccccc3c2)NC(=O)[C@H](Cc2ccc(OCCN)cc2)NC(=O)[C@@H]2CSCC(=O)CSC[C@H](NC(=O)[C@H](CO)NC(=O)c3ccc(cc3)CCNC(=O)CC[C@@H](C(=O)N[C@@H](CCCNC(=N)N)C(N)=O)NC1=O)C(=O)N[C@@H](Cc1c[nH]c3ccccc13)C(=O)N[C@@H](CCC(N)=O)C(=O)N2
B3: Compound 38 (peptide)
peptide: [3Amb]SCWQC[AEF][2Nal][αMeL]ER-NH2
modifications: lactam N-10; linker 3-6 via CH2COCH2
SMILES: CC(C)C[C@]1(C)NC(=O)[C@H](Cc2ccc3ccccc3c2)NC(=O)[C@H](Cc2ccc(OCCN)cc2)NC(=O)[C@@H]2CSCC(=O)CSC[C@H](NC(=O)[C@H](CO)NC(=O)c3cccc(c3)CNC(=O)CC[C@@H](C(=O)N[C@@H](CCCNC(=N)N)C(N)=O)NC1=O)C(=O)N[C@@H](Cc1c[nH]c3ccccc13)C(=O)N[C@@H](CCC(N)=O)C(=O)N2
B4: Compound 44 (peptide)
peptide: [3Amb]SCWQC[AEF][2Nal][αMeL]ES-NH2
modifications: lactam N-10; linker 3-6 via CH2COCH2
SMILES: CC(C)C[C@]1(C)NC(=O)[C@H](Cc2ccc3ccccc3c2)NC(=O)[C@H](Cc2ccc(OCCN)cc2)NC(=O)[C@@H]2CSCC(=O)CSC[C@H](NC(=O)[C@H](CO)NC(=O)c3cccc(c3)CNC(=O)CC[C@@H](C(=O)N[C@@H](CO)C(N)=O)NC1=O)C(=O)N[C@@H](Cc1c[nH]c3ccccc13)C(=O)N[C@@H](CCC(N)=O)C(=O)N2
B5: Compound 56 (peptide)
peptide: Ac-DEQCWQC[2Nal]W[αMeL]KR-NH2
modifications: lactam 2-11; linker 4-7 via CH2COCH2
SMILES: CC(=O)N[C@@H](CC(=O)O)C(=O)N[C@H]1CCC(=O)NCCCC[C@@H](C(=O)N[C@@H](CCCNC(=N)N)C(N)=O)NC(=O)[C@](C)(CC(C)C)NC(=O)[C@H](Cc2c[nH]c3ccccc23)NC(=O)[C@H](Cc2ccc3ccccc3c2)NC(=O)[C@@H]2CSCC(=O)CSC[C@H](NC(=O)[C@H](CCC(N)=O)NC1=O)C(=O)N[C@@H](Cc1c[nH]c3ccccc13)C(=O)N[C@@H](CCC(N)=O)C(=O)N2
B6: Compound 26 (peptide)
peptide: Ac-KSC[Bip]QCW[2Nal]LER-NH2
modifications: lactam 1-10; linker 3-6 via CH2COCH2
SMILES: CC(=O)N[C@H]1CCCCNC(=O)CC[C@@H](C(=O)N[C@@H](CCCNC(=N)N)C(N)=O)NC(=O)[C@H](CC(C)C)NC(=O)[C@H](Cc2ccc3ccccc3c2)NC(=O)[C@H](Cc2c[nH]c3ccccc23)NC(=O)[C@@H]2CSCC(=O)CSC[C@H](NC(=O)[C@H](CO)NC1=O)C(=O)N[C@@H](Cc1ccc(-c3ccccc3)cc1)C(=O)N[C@@H](CCC(N)=O)C(=O)N2
B7: Compound 36 (peptide)
peptide: XSCWQCWXLER
HELM: PEPTIDE1{[bAla].S.C.W.Q.C.W.[O=C([C@H](Cc1ccc2ccccc2c1)N[*:1])[*:2]].L.E.R.[am]}|CHEM1{[O=C(C[*:1])C[*:2]]}$PEPTIDE1,PEPTIDE1,1:R1-10:R3|PEPTIDE1,CHEM1,3:R3-1:R1|PEPTIDE1,CHEM1,6:R3-1:R2$$$V2.0
SMILES: CC(C)C[C@@H]1NC(=O)[C@H](Cc2ccc3ccccc3c2)NC(=O)[C@H](Cc2c[nH]c3ccccc23)NC(=O)[C@@H]2CSCC(=O)CSC[C@H](NC(=O)[C@H](CO)NC(=O)CCNC(=O)CC[C@@H](C(=O)N[C@@H](CCCNC(=N)N)C(N)=O)NC1=O)C(=O)N[C@@H](Cc1c[nH]c3ccccc13)C(=O)N[C@@H](CCC(N)=O)C(=O)N2
B8: Compound 39 (peptide)
peptide: [3Amb]SCWQC[AEF][2Nal]LER-NH2
modifications: lactam N-10; linker 3-6 via CH2COCH2
SMILES: CC(C)C[C@@H]1NC(=O)[C@H](Cc2ccc3ccccc3c2)NC(=O)[C@H](Cc2ccc(OCCN)cc2)NC(=O)[C@@H]2CSCC(=O)CSC[C@H](NC(=O)[C@H](CO)NC(=O)c3cccc(c3)CNC(=O)CC[C@@H](C(=O)N[C@@H](CCCNC(=N)N)C(N)=O)NC1=O)C(=O)N[C@@H](Cc1c[nH]c3ccccc13)C(=O)N[C@@H](CCC(N)=O)C(=O)N2

The experiment has as its target T1, human IL-23R endogenously expressed on DB cells (CRL-2289) (human, UniProt Q5VWK5 24-629).
T1 sequence (looked up): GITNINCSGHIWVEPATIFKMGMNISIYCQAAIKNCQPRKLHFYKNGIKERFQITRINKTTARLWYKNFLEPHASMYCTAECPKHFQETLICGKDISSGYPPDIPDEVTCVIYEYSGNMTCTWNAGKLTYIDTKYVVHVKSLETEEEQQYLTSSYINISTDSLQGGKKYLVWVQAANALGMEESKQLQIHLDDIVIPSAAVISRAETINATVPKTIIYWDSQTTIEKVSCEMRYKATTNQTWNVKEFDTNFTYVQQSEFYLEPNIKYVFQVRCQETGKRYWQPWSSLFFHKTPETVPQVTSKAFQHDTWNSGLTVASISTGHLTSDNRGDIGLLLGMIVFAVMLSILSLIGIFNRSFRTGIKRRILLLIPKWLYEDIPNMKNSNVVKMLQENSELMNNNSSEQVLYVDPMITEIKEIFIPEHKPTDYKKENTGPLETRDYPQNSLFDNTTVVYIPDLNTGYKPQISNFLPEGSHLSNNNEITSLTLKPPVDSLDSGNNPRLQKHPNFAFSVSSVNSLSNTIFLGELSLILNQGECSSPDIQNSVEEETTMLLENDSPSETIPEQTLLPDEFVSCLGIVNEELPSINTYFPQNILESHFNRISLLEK
Kind of experiment: cell-based or functional assay.
For the molecule B1, the “IC50 (pSTAT3)” value was determined as 24.7 nM.

Take B2: the “IC50 (pSTAT3)” value is 51.1 nM.

In the case of Ac-DCQCWQCYW[αMeL]CR-NH2 (linker 2-11, 4-7 via CH2COCH2) [Compound 63], the “IC50 (pSTAT3)” value is greater than 1 µM.

For the molecule H-LCSCWQCWWLCR-NH2 (linker 2-11, 4-7 via CH2COCH2) [Compound 2], the “IC50 (pSTAT3)” value was determined as 755 nM.

With B3, the “IC50 (pSTAT3)” value worked out at 19.3 nM.

For the molecule B4, the “IC50 (pSTAT3)” value is 82.3 nM.

On to B5, for which the “IC50 (pSTAT3)” value was greater than 1 µM.

On to [3‑(4-Aminophenyl)propanoyl]SCWQC[AEF][2Nal][αMeL]ER-NH2 (lactam N-10; linker 3-6 via CH2COCH2) [Compound 51], for which the “IC50 (pSTAT3)” value was 68.1 nM.

For the molecule B6, the “IC50 (pSTAT3)” value is greater than 1 µM.

Turning to [(4-Aminomethyl)benzoyl]SCWQC[AEF][2Nal][αMeL]ER-NH2 (lactam N-10; linker 3-6 via CH2COCH2) [Compound 49], the “IC50 (pSTAT3)” value was 20.3 nM.

On to Ac-DESCAQCWWLKR-NH2 (lactam 2-11; linker 4-7 via 1,3‑dibromopropan‑2‑one) [Compound 13], for which the “IC50 (pSTAT3)” value was greater than 1 µM.

For Ac-DESCWQCWALKR-NH2 (lactam 2-11; linker 4-7 via 1,3‑dibromopropan‑2‑one) [Compound 15], the “IC50 (pSTAT3)” value was greater than 1 µM.

Turning to Ac-DESCWQCAWLKR-NH2 (lactam 2-11; linker 4-7 via 1,3‑dibromopropan‑2‑one) [Compound 14], the “IC50 (pSTAT3)” value is greater than 1 µM.

For the molecule Ac-DCQCWQC[2Nal]W[αMeL]CR-NH2 (linker 2-11, 4-7 via CH2COCH2) [Compound 62], the “IC50 (pSTAT3)” value was greater than 1 µM.

In the case of B7, the “IC50 (pSTAT3)” value is greater than 1 µM.

Consider B8, for which the “IC50 (pSTAT3)” value was found to be 19.6 nM.

As for H-DCSEWQKWWLCR-NH2 (linker 2-11 via 1,3‑dibromopropan‑2‑one; lactam 4-7) [Compound 5], the “IC50 (pSTAT3)” value was greater than 1 µM.
